Measured values as given in FireProtDB (doi:10.1021/bi972395d).

Conditions: Homo sapiens; pH 7.8; Thermal; DSC; potassium phosphate 2 mM; transition: 2; reversible: Yes; whole UniProt chain shown

B1: Superoxide dismutase [Mn], mitochondrial wild type, P04179 (protein)
chain: MLSRAVCGTSRQLAPVLGYLGSRQKHSLPDLPYDYGALEPHINAQIMQLHHSKHHAAYVNNLNVTEEKYQEALAKGDVTAQIALQPALKFNGGGHINHSIFWTNLSPNGGGEPKGELLEAIKRDFGSFDKFKEKLTAASVGVQGSGWGWLGFNKERGHLQIAACPNQDPLQGTTGLIPLLGIDVWEHAYYLQYKNVRPDYLKAIWNVINWENVTERYMACKK
Tm: 88.9 °C
unfolding enthalpy (calorimetric): 90.6 kcal/mol
